According to patent publication US20140087995A1 (published 2014):
Numbered stars: 1 amine (or outer) side, 2 acyl side, 3 side chain; on linkers, the order of the positions; unused ones are H or OH. Bridge positions count the residues as written; N and C are the ends. Side chains are listed from the residue outwards. Ends that are not written are not given here. * marks the point of attachment. C20 diacid = O=C(O)CCCCCCCCCCCCCCCCCCC(=O)*; γGlu = O=C(O)[C@H](CCC(=O)[*:2])N[*:1]

T1: human amylin receptor (amylin 3(a) receptor: human calcitonin receptor with RAMP-3) (human, UniProt P30988 25-474; O60896 24-148)
T1 construct: whole, on cells; also called hAmylin-R; hAmylinR
T1 sequence (looked up) 1: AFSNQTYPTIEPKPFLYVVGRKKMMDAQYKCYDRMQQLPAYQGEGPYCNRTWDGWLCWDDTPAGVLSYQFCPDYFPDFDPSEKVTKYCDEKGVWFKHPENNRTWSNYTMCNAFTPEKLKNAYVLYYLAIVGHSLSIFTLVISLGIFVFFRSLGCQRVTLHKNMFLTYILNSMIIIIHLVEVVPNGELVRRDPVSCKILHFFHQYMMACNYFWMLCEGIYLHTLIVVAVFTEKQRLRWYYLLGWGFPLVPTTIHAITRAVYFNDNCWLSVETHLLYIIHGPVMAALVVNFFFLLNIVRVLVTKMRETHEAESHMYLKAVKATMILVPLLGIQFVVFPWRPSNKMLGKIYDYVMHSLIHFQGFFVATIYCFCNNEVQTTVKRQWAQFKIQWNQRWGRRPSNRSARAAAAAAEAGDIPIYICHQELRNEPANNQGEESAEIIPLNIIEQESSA
T1 sequence (looked up) 2: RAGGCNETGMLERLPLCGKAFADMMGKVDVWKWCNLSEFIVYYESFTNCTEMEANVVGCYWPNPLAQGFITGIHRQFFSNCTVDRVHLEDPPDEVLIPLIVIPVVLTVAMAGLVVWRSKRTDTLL

B1: N^ε1-[(4S)-4-carboxy-4-(19-carboxynonadecanoylamino)butanoyl]-[Arg17,Pro21,Pro27,His35]-h-amylin (peptide)
peptide: K([γGlu-C20 diacid])CNTATCATQRLANFLRHSSPNFGAIPSSTNVGSHTY-NH2
modifications: disulfide 2-7; N-terminus assumed
SMILES: CC[C@H](C)[C@H](NC(=O)[C@H](C)NC(=O)CNC(=O)[C@H](Cc1ccccc1)NC(=O)[C@H](CC(N)=O)NC(=O)[C@@H]1CCCN1C(=O)[C@H](CO)NC(=O)[C@H](CO)NC(=O)[C@H](Cc1c[nH]cn1)NC(=O)[C@H](CCCNC(=N)N)NC(=O)[C@H](CC(C)C)NC(=O)[C@H](Cc1ccccc1)NC(=O)[C@H](CC(N)=O)NC(=O)[C@H](C)NC(=O)[C@H](CC(C)C)NC(=O)[C@H](CCCNC(=N)N)NC(=O)[C@H](CCC(N)=O)NC(=O)[C@@H](NC(=O)[C@H](C)NC(=O)[C@@H]1CSSC[C@H](NC(=O)[C@@H](N)CCCCNC(=O)CC[C@H](NC(=O)CCCCCCCCCCCCCCCCCCC(=O)O)C(=O)O)C(=O)N[C@@H](CC(N)=O)C(=O)N[C@@H]([C@@H](C)O)C(=O)N[C@@H](C)C(=O)N[C@@H]([C@@H](C)O)C(=O)N1)[C@@H](C)O)C(=O)N1CCC[C@H]1C(=O)N[C@@H](CO)C(=O)N[C@@H](CO)C(=O)N[C@H](C(=O)N[C@@H](CC(N)=O)C(=O)N[C@H](C(=O)NCC(=O)N[C@@H](CO)C(=O)N[C@@H](Cc1c[nH]cn1)C(=O)N[C@H](C(=O)N[C@@H](Cc1ccc(O)cc1)C(N)=O)[C@@H](C)O)C(C)C)[C@@H](C)O
notes: also called 60; compound 60
B2: N^ε1-[(4S)-4-carboxy-4-(19-carboxynonadecanoylamino)butanoyl]-[Arg17,Pro21,Pro27,Lys35]-h-amylin (peptide)
peptide: K([γGlu-C20 diacid])CNTATCATQRLANFLRHSSPNFGAIPSSTNVGSKTY-NH2
modifications: disulfide 2-7; N-terminus assumed
SMILES: CC[C@H](C)[C@H](NC(=O)[C@H](C)NC(=O)CNC(=O)[C@H](Cc1ccccc1)NC(=O)[C@H](CC(N)=O)NC(=O)[C@@H]1CCCN1C(=O)[C@H](CO)NC(=O)[C@H](CO)NC(=O)[C@H](Cc1c[nH]cn1)NC(=O)[C@H](CCCNC(=N)N)NC(=O)[C@H](CC(C)C)NC(=O)[C@H](Cc1ccccc1)NC(=O)[C@H](CC(N)=O)NC(=O)[C@H](C)NC(=O)[C@H](CC(C)C)NC(=O)[C@H](CCCNC(=N)N)NC(=O)[C@H](CCC(N)=O)NC(=O)[C@@H](NC(=O)[C@H](C)NC(=O)[C@@H]1CSSC[C@H](NC(=O)[C@@H](N)CCCCNC(=O)CC[C@H](NC(=O)CCCCCCCCCCCCCCCCCCC(=O)O)C(=O)O)C(=O)N[C@@H](CC(N)=O)C(=O)N[C@@H]([C@@H](C)O)C(=O)N[C@@H](C)C(=O)N[C@@H]([C@@H](C)O)C(=O)N1)[C@@H](C)O)C(=O)N1CCC[C@H]1C(=O)N[C@@H](CO)C(=O)N[C@@H](CO)C(=O)N[C@H](C(=O)N[C@@H](CC(N)=O)C(=O)N[C@H](C(=O)NCC(=O)N[C@@H](CO)C(=O)N[C@@H](CCCCN)C(=O)N[C@H](C(=O)N[C@@H](Cc1ccc(O)cc1)C(N)=O)[C@@H](C)O)C(C)C)[C@@H](C)O
notes: also called 35; compound 35
B3: N^ε1-[(4S)-4-carboxy-4-(19-carboxynonadecanoylamino)butanoyl]-[Glu14,Arg17,Pro21,Pro27,Arg35]-h-amylin (peptide)
peptide: K([γGlu-C20 diacid])CNTATCATQRLAEFLRHSSPNFGAIPSSTNVGSRTY-NH2
modifications: disulfide 2-7; N-terminus assumed
SMILES: CC[C@H](C)[C@H](NC(=O)[C@H](C)NC(=O)CNC(=O)[C@H](Cc1ccccc1)NC(=O)[C@H](CC(N)=O)NC(=O)[C@@H]1CCCN1C(=O)[C@H](CO)NC(=O)[C@H](CO)NC(=O)[C@H](Cc1c[nH]cn1)NC(=O)[C@H](CCCNC(=N)N)NC(=O)[C@H](CC(C)C)NC(=O)[C@H](Cc1ccccc1)NC(=O)[C@H](CCC(=O)O)NC(=O)[C@H](C)NC(=O)[C@H](CC(C)C)NC(=O)[C@H](CCCNC(=N)N)NC(=O)[C@H](CCC(N)=O)NC(=O)[C@@H](NC(=O)[C@H](C)NC(=O)[C@@H]1CSSC[C@H](NC(=O)[C@@H](N)CCCCNC(=O)CC[C@H](NC(=O)CCCCCCCCCCCCCCCCCCC(=O)O)C(=O)O)C(=O)N[C@@H](CC(N)=O)C(=O)N[C@@H]([C@@H](C)O)C(=O)N[C@@H](C)C(=O)N[C@@H]([C@@H](C)O)C(=O)N1)[C@@H](C)O)C(=O)N1CCC[C@H]1C(=O)N[C@@H](CO)C(=O)N[C@@H](CO)C(=O)N[C@H](C(=O)N[C@@H](CC(N)=O)C(=O)N[C@H](C(=O)NCC(=O)N[C@@H](CO)C(=O)N[C@@H](CCCNC(=N)N)C(=O)N[C@H](C(=O)N[C@@H](Cc1ccc(O)cc1)C(N)=O)[C@@H](C)O)C(C)C)[C@@H](C)O
notes: also called 51; compound 51
B4: N^ε1-[(4S)-4-carboxy-4-(19-carboxynonadecanoylamino)butanoyl]-[His14,Arg17,Pro21,Pro27,Arg34]-h-amylin (peptide)
peptide: K([γGlu-C20 diacid])CNTATCATQRLAHFLRHSSPNFGAIPSSTNVGRNTY-NH2
modifications: disulfide 2-7; N-terminus assumed
SMILES: CC[C@H](C)[C@H](NC(=O)[C@H](C)NC(=O)CNC(=O)[C@H](Cc1ccccc1)NC(=O)[C@H](CC(N)=O)NC(=O)[C@@H]1CCCN1C(=O)[C@H](CO)NC(=O)[C@H](CO)NC(=O)[C@H](Cc1c[nH]cn1)NC(=O)[C@H](CCCNC(=N)N)NC(=O)[C@H](CC(C)C)NC(=O)[C@H](Cc1ccccc1)NC(=O)[C@H](Cc1c[nH]cn1)NC(=O)[C@H](C)NC(=O)[C@H](CC(C)C)NC(=O)[C@H](CCCNC(=N)N)NC(=O)[C@H](CCC(N)=O)NC(=O)[C@@H](NC(=O)[C@H](C)NC(=O)[C@@H]1CSSC[C@H](NC(=O)[C@@H](N)CCCCNC(=O)CC[C@H](NC(=O)CCCCCCCCCCCCCCCCCCC(=O)O)C(=O)O)C(=O)N[C@@H](CC(N)=O)C(=O)N[C@@H]([C@@H](C)O)C(=O)N[C@@H](C)C(=O)N[C@@H]([C@@H](C)O)C(=O)N1)[C@@H](C)O)C(=O)N1CCC[C@H]1C(=O)N[C@@H](CO)C(=O)N[C@@H](CO)C(=O)N[C@H](C(=O)N[C@@H](CC(N)=O)C(=O)N[C@H](C(=O)NCC(=O)N[C@@H](CCCNC(=N)N)C(=O)N[C@@H](CC(N)=O)C(=O)N[C@H](C(=O)N[C@@H](Cc1ccc(O)cc1)C(N)=O)[C@@H](C)O)C(C)C)[C@@H](C)O
notes: also called 85; compound 85
B5: N^ε1-[(4S)-4-carboxy-4-(19-carboxynonadecanoylamino)butanoyl]-[His14,Arg17,Pro21,Pro27,His34]-h-amylin (peptide)
peptide: K([γGlu-C20 diacid])CNTATCATQRLAHFLRHSSPNFGAIPSSTNVGHNTY-NH2
modifications: disulfide 2-7; N-terminus assumed
SMILES: CC[C@H](C)[C@H](NC(=O)[C@H](C)NC(=O)CNC(=O)[C@H](Cc1ccccc1)NC(=O)[C@H](CC(N)=O)NC(=O)[C@@H]1CCCN1C(=O)[C@H](CO)NC(=O)[C@H](CO)NC(=O)[C@H](Cc1c[nH]cn1)NC(=O)[C@H](CCCNC(=N)N)NC(=O)[C@H](CC(C)C)NC(=O)[C@H](Cc1ccccc1)NC(=O)[C@H](Cc1c[nH]cn1)NC(=O)[C@H](C)NC(=O)[C@H](CC(C)C)NC(=O)[C@H](CCCNC(=N)N)NC(=O)[C@H](CCC(N)=O)NC(=O)[C@@H](NC(=O)[C@H](C)NC(=O)[C@@H]1CSSC[C@H](NC(=O)[C@@H](N)CCCCNC(=O)CC[C@H](NC(=O)CCCCCCCCCCCCCCCCCCC(=O)O)C(=O)O)C(=O)N[C@@H](CC(N)=O)C(=O)N[C@@H]([C@@H](C)O)C(=O)N[C@@H](C)C(=O)N[C@@H]([C@@H](C)O)C(=O)N1)[C@@H](C)O)C(=O)N1CCC[C@H]1C(=O)N[C@@H](CO)C(=O)N[C@@H](CO)C(=O)N[C@H](C(=O)N[C@@H](CC(N)=O)C(=O)N[C@H](C(=O)NCC(=O)N[C@@H](Cc1c[nH]cn1)C(=O)N[C@@H](CC(N)=O)C(=O)N[C@H](C(=O)N[C@@H](Cc1ccc(O)cc1)C(N)=O)[C@@H](C)O)C(C)C)[C@@H](C)O
notes: also called 81; compound 81
B6: N^ε1-[(4S)-4-carboxy-4-(19-carboxynonadecanoylamino)butanoyl]-[His14,Arg17,Pro21,Pro27,His35]-h-amylin (peptide)
peptide: K([γGlu-C20 diacid])CNTATCATQRLAHFLRHSSPNFGAIPSSTNVGSHTY-NH2
modifications: disulfide 2-7; N-terminus assumed
SMILES: CC[C@H](C)[C@H](NC(=O)[C@H](C)NC(=O)CNC(=O)[C@H](Cc1ccccc1)NC(=O)[C@H](CC(N)=O)NC(=O)[C@@H]1CCCN1C(=O)[C@H](CO)NC(=O)[C@H](CO)NC(=O)[C@H](Cc1c[nH]cn1)NC(=O)[C@H](CCCNC(=N)N)NC(=O)[C@H](CC(C)C)NC(=O)[C@H](Cc1ccccc1)NC(=O)[C@H](Cc1c[nH]cn1)NC(=O)[C@H](C)NC(=O)[C@H](CC(C)C)NC(=O)[C@H](CCCNC(=N)N)NC(=O)[C@H](CCC(N)=O)NC(=O)[C@@H](NC(=O)[C@H](C)NC(=O)[C@@H]1CSSC[C@H](NC(=O)[C@@H](N)CCCCNC(=O)CC[C@H](NC(=O)CCCCCCCCCCCCCCCCCCC(=O)O)C(=O)O)C(=O)N[C@@H](CC(N)=O)C(=O)N[C@@H]([C@@H](C)O)C(=O)N[C@@H](C)C(=O)N[C@@H]([C@@H](C)O)C(=O)N1)[C@@H](C)O)C(=O)N1CCC[C@H]1C(=O)N[C@@H](CO)C(=O)N[C@@H](CO)C(=O)N[C@H](C(=O)N[C@@H](CC(N)=O)C(=O)N[C@H](C(=O)NCC(=O)N[C@@H](CO)C(=O)N[C@@H](Cc1c[nH]cn1)C(=O)N[C@H](C(=O)N[C@@H](Cc1ccc(O)cc1)C(N)=O)[C@@H](C)O)C(C)C)[C@@H](C)O
notes: also called 66; compound 66

Each binder was assayed against T1, human amylin receptor (amylin 3(a) …) (assay: SPA displacement of 125I-rat amylin, hAmylin 3(a) receptor membranes).
Procedure, shortened: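 Membranes from BHK Amylin 3(a)/CRE-luc cells (35 ng/μL final) were mixed with SPA beads and test compounds in 50 mM Hepes pH 7.4 with 1 mM CaCl2, 5 mM MgCl₂, 0.1% OA and 0.02% Tween20. Incubation ran 120 min at 25° C with shaking; IC₅₀ came from one-site competition fitting.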

Binder | IC50 [nM]
B1 | 0.695
B2 | 0.97
B3 | 0.828
B4 | 0.876
B5 | 0.271
B6 | 0.396
